Series [1] relates to vector DNA (ITR+cargo, ITR, HIV probes) in human graft. Description: ddPCR of viral vector copies per human genome in long-term human xenografts. Conditions: AAVS1-edited HSPCs, AAV template. The format is in vivo, NSG mice. An excerpt: Since short-read sequencing of the edited locus and genome-wide IS identification may underestimate the overall frequency of trapping events, we performed ddPCR analyses to get an independent genome-wide quantification of AAV genome trapping events. […] On the contrary, we detected only background noise signal when probing for the AAV plasmid contaminants in the human long-term graft (FIG. 6i). […] Whether integration of AAV DNA occurs mostly as individual elements in a sizable fraction of cells treated for editing or as concatemers in only a small fraction of them cannot be determined by this analysis. Since ITR fragments are not detected by the ITR+cargo assay we performed ddPCR also with the ITR probe on PB samples of mice from FIG. 5g and found equal or higher signal in most mice (FIG. 51).
gDNA was isolated with QIAamp DNA Micro Kit from DNAse-treated in vitro culture cells pellet and in vivo samples, or with QuickExtract (Epicentre) from single colonies according to the manufacturer's instructions. For ddPCR analyses, 5-50 ng of gDNA for in vitro/vivo samples and 2 μl of gDNA for single colonies were analyzed using the QX200 Droplet Digital PCR System according to the manufacturer's instructions. […]

The next series relates to AAVS1 locus. The format is in vivo, human xenograft. As to conditions: in presence and absence of Ad5-E4orf6/7; 65 samples of published experiments. As for the experimental part:
PCR amplicons for individual samples were generated by nested PCR and starting from >50-100 ng of purified gDNA. The first PCR step was performed with GoTaq G2 DNA Polymerase (Promega) according to manufacturer instruction using the following amplification protocol: 95° C.×5′min, (95° C.×0.5 min, 60° C.×0.5 min, 72° C.×[…])×20 cycles, 72° C.×5 min. The second PCR step was performed with GoTaq G2 DNA Polymerase (Promega) according to manufacturer instruction using 5 μl of the first-step PCR product and the following amplification protocol: 95° C.×5 min, (95° C.×0.5 min, 60° C.×0.5 min, 72° C.×0.3 min)×20 cycles, 72° C.×5 min. […] Amplicons concentration and quality was assessed by QuantiFluor ONE dsDNA system and 4200 Tapestation System (Agilent). […]
Sequencing data were analyzed with CRISPResso2, which enables detection and quantification of insertions, mutations, and deletions in reads from gene editing experiments. In details, for each sample, input NGS reads were trimmed using the Trimmomatic software (http://www.usadellab.org/cms/?page=trimmomatic) based on the phred33 score to get rid of low-quality positions (score <30) and to remove Illumina adapters, keeping only trimmed sequences longer than 100 bp (CRISPResso2 options:—trim_sequences—trimmomatic_command trimmomatic—trimmomatic_options_string ‘[…]: TruSeq3-PE-2.fa: 2:30:10 MINLEN: 100’). […]

The results in this text go back to patent US20250288617A1, “Gene Therapy” (priority 2022, published 2025).

B1: GSE56: p53 dominant negative peptide (SEQ ID NO: 3), delivered as in vitro transcribed mRNA (nucleic acid)
DNA: ATGGATGGATGGTGTCCTGGGAGAGACCGTCGGACAGAGGAAGAAAATTTCCGCAAAAAAGAAGAGCATTGCCCGGAGCTGCCCCCAGGGAGTGCAAAGAGAGCACTGCCCACCAGCACAAGCTCCTCTCCCCAGCAAAAGAAAAAACCACTCGATGGAGAATATTTCACCCTTAAGATCCGTGGGCGTGAGCGCTTCGAGATGTTCCGAGAGCTGAATGAGGCCTTGGAATTAAAGGATGCCCGTGCTGCCGAGGAGTCAGGAGACAGCAGGGCTCACTCCAGCTACCCGAAGATAGTTAGTTAG
modifications: in vitro transcribed mRNA; protein SEQ ID NO: 3
With B1, in series [1], the “ITR+cargo copies in long-term xenograft in presence of editing enhancers” value is recorded as “more copies”. Besides, the “frequency and number of unique NHEJ-edited alleles in the human graft” value in the series on AAVS1 locus is recorded as “higher”.

B2: Ad5-E4orf6/7: adenovirus serotype 5 protein E4orf6/7 (SEQ ID No. 27), delivered as in vitro transcribed mRNA (nucleic acid)
DNA: ATGACCACCAGCGGCGTGCCCTTCGGCATGACACTCAGACCTACCAGAAGCCGGCTGAGCAGAAGAACCCCTTACAGCAGAGACAGGCTGCCTCCATTCGAGACAGAGACACGGGCCACCATCCTGGAAGATCACCCTCTGCTGCCCGAGTGTAACACCCTGACCATGCACAACGCCTGGACAAGCCCATCTCCTCCAGTGAAACAGCCCCAAGTGGGACAGCAGCCTGTTGCTCAGCAGCTGGACAGCGACATGAACCTGTCTGAACTGCCCGGCGAGTTCATCAACATCACCGACGAGAGACTGGCCCGGCAAGAGACAGTGTGGAACATCACCCCTAAGAACATGAGCGTGACCCACGACATGATGCTGTTCAAGGCCAGCAGAGGCGAGCGGACAGTGTACAGCGTTTGTTGGGAAGGCGGCGGACGGCTGAATACCAGAGTGCTGTAA
modifications: in vitro transcribed mRNA
For the molecule B2, the “ITR+cargo copies in long-term xenograft in presence of editing enhancers” value in series [1] was “more copies”.
